Where two headings read alike, the source gives them in different places.
Columns and labels:
[1] = molecular target: T1, human PD-1 expressed on cells (human, UniProt Q15116 25-288); experiment: flow cytometry, CHO-S hPD-1
T1 construct: whole, on cells; cell line named under assay; also called CHO-S hPD-1; Raji PD-1
Procedure: CHO-S hPD-1 cells were incubated with a 5-fold serial dilution of the indicated humanized antibodies. Antibody binding was detected with goat anti-human IgG-PE. MFI were plotted over the antibody concentration to obtain EC50 values.

[2] = molecular target: T2, cynoPD-1 His (AcroBiosystems PD1-C5223) (cynomolgus monkey, UniProt B0LAJ3 25-170); experiment: SPR, Ab captured, PD-1 analyte
T2 construct: also called cPD-1; cynomolgus PD-1 His-tagged
Procedure: (§1) Anti-human Fc IgG (Jackson) was immobilized on amine reactive CM5 chips (GE Healthcare) using 1×HBS-EP+ running buffer (GE Healthcare). The test antibodies were captured at flow rate 10 μl/min with 30 s contact time. […] Regeneration was carried out with 10 mM Glycine-HCl, pH 1.5 at flow rate 10 μL/min. This protocol is to be used, unless stated otherwise, in determination of Kd wherever used to define the KD of antibodies specified herein, with adaptions where necessary with regard to the nature of the interaction partners.

[3] = molecular target: T3, hPD-1 Avi-Tag Biotin (AcroBiosystems PD1-H82E4) (human, UniProt Q15116 25-167, biotin on Avi-Tag); experiment: SPR, Ab captured, PD-1 analyte
T3 construct: bought; also called human PD-1
Procedure: as §1

[4] = molecular target: T4, recombinant cynoPD-1 (construct not stated) (cynomolgus monkey, UniProt B0LAJ3 25-170); experiment: SPR, Ab captured, PD-1 analyte
T4 construct: not shown: probably His as elsewhere
Procedure: (§2) Recombinant humanized antibody variants of ZJN296 were expressed as human IgG1 in HEK293 cells. For SPR analysis (Biacore 8K, GE Healthcare) anti-human Fc IgG (Bethyl, A80-304P) was immobilized on CM5 chips (Cytiva) using 1×HBS-EP+ running buffer. […] 10 mM glycine (pH 1.5) as regeneration buffer was injected to flow cells following every dissociation phase.

[5] = molecular target: T5, recombinant hPD-1 (construct not stated) (human, UniProt Q15116 25-167, limits assumed); experiment: SPR, Ab captured, PD-1 analyte
T5 construct: also called huPD-1; Human PD1
Procedure: as §2

[6] = molecular target: T2, cynoPD-1 His (AcroBiosystems PD1-C5223); experiment: SPR, Ab captured, PD-1 analyte; remark: listed apart in the source
Procedure: (§3) 10 mM glycine (pH 1.5) as regeneration buffer was injected to flow cells following every dissociation phase.

[7] = molecular target: T6, hPD-1 His-tagged (human, UniProt Q15116 25-167); experiment: SPR, Ab captured, PD-1 analyte
T6 construct: also called recombinant hPD-1 (AcroBio)
Procedure: as §3

T1 sequence (Q15116 25-288): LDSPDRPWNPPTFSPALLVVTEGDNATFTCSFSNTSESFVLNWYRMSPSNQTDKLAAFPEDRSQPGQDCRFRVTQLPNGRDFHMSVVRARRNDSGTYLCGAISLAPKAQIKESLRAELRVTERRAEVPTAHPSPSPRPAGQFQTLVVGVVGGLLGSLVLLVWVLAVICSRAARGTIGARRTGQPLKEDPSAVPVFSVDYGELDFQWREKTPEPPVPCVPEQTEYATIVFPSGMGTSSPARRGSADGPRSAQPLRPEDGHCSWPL
T2 sequence (B0LAJ3 entry or part of it limits assumed): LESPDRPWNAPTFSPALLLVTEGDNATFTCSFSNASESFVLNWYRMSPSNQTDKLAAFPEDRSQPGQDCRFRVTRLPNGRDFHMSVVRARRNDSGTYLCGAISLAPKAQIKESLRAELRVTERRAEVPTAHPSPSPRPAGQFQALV
T4 sequence (B0LAJ3 entry or part of it limits assumed): as above
T3 sequence (Q15116 25-167 limits assumed): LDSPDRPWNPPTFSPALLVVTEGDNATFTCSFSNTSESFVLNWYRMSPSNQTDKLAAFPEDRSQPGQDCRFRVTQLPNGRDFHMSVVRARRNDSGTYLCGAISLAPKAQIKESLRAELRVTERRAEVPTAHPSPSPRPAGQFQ
T6 sequence (Q15116 25-167 limits assumed): as above
T5 sequence (Q15116 25-167 limits assumed): as above

| EC50 [1] [nM] | Top MFI [1] [MFI] | Kd [2] [nM] | koff [2] [s⁻¹] | kon [2] [M⁻¹ s⁻¹] | Kd [3] [nM] | koff [3] [s⁻¹] | kon [3] [M⁻¹ s⁻¹] | Kd [4] [nM] | koff [4] [s⁻¹] | kon [4] [M⁻¹ s⁻¹] | Kd [5] [nM] | koff [5] [s⁻¹] | kon [5] [M⁻¹ s⁻¹] | Kd [6] [nM] | koff [6] [s⁻¹] | kon [6] [M⁻¹ s⁻¹] | Kd [7] [nM] | koff [7] [s⁻¹] | kon [7] [M⁻¹ s⁻¹] | Binder |
| --- | --- | --- | --- | --- | --- | --- | --- | --- | --- | --- | --- | --- | --- | --- | --- | --- | --- | --- | --- | --- |
| 4.51 | 46200 | 57.3 | 0.00336 | 58600 | 15.9 | 0.00145 | 91400 | – | – | – | – | – | – | – | – | – | – | – | – | z5-XVT458 (antibody, human IgG1, kappa, V domains shown, hIgG1; numbering as for z1; also called GH + V067A + T073K) VH: QVQLVQSGAEVKKPGASVKVSCKASGYTFTNFYIHWVRQAPGQGLEWMGSIYPNYGDTAYNQKFKDRATMTTDKSTSTAYMELRSLRSDDTAVYYCARGYSYAMDYWGQGTTVTVSS VL: DIQMTQSPSSVSASVGDRVTITCSASQGISGDLNWYQQKPGKAPKLLIYHTSSLHSGVPSRFSGSGSGTDFTLTISSLQPEDFATYYCQYYSKDLLTFGGGTKLEIKR |
| 5.47 | 46200 | 57.7 | 0.00331 | 57400 | 16.2 | 0.00142 | 87400 | – | – | – | – | – | – | – | – | – | – | – | – | z3-XVT458 (antibody, human IgG1, kappa, V domains shown, hIgG1; numbering as for z1; also called GH + T073K) VH: QVQLVQSGAEVKKPGASVKVSCKASGYTFTNFYIHWVRQAPGQGLEWMGSIYPNYGDTAYNQKFKDRVTMTTDKSTSTAYMELRSLRSDDTAVYYCARGYSYAMDYWGQGTTVTVSS VL: DIQMTQSPSSVSASVGDRVTITCSASQGISGDLNWYQQKPGKAPKLLIYHTSSLHSGVPSRFSGSGSGTDFTLTISSLQPEDFATYYCQYYSKDLLTFGGGTKLEIKR |
| 5.74 | 45200 | 56.7 | 0.00358 | 63200 | 16.1 | 0.00147 | 91100 | – | – | – | – | – | – | – | – | – | – | – | – | z0-XVT458 (antibody, human IgG1, kappa, V domains shown, hIgG1; also called GH + uVL) VH: QVQLVQSGAEVKKPGASVKVSCKASGYTFTNFYIHWVRQAPGQGLEWMGSIYPNYGDTAYNQKFKDRVTMTTDTSTSTAYMELRSLRSDDTAVYYCARGYSYAMDYWGQGTTVTVSS VL: DIQMTQSPSSVSASVGDRVTITCSASQGISGDLNWYQQKPGKAPKLLIYHTSSLHSGVPSRFSGSGSGTDFTLTISSLQPEDFATYYCQYYSKDLLTFGGGTKLEIKR |
| 4.54 | 46700 | 51 | 0.00323 | 63300 | 13.3 | 0.00131 | 98800 | – | – | – | – | – | – | – | – | – | – | – | – | z4-XVT458 (antibody, human IgG1, kappa, V domains shown, hIgG1; numbering as for z1; also called GH + V067A + T071V) VH: QVQLVQSGAEVKKPGASVKVSCKASGYTFTNFYIHWVRQAPGQGLEWMGSIYPNYGDTAYNQKFKDRATMTVDTSTSTAYMELRSLRSDDTAVYYCARGYSYAMDYWGQGTTVTVSS VL: DIQMTQSPSSVSASVGDRVTITCSASQGISGDLNWYQQKPGKAPKLLIYHTSSLHSGVPSRFSGSGSGTDFTLTISSLQPEDFATYYCQYYSKDLLTFGGGTKLEIKR |
| 3.93 | 46800 | 53.8 | 0.00314 | 58400 | 14.5 | 0.00133 | 92000 | – | – | – | – | – | – | – | – | – | – | – | – | z6-XVT458 (antibody, human IgG1, kappa, V domains shown, hIgG1; numbering as for z1; also called GH + T071V + T073K) VH: QVQLVQSGAEVKKPGASVKVSCKASGYTFTNFYIHWVRQAPGQGLEWMGSIYPNYGDTAYNQKFKDRVTMTVDKSTSTAYMELRSLRSDDTAVYYCARGYSYAMDYWGQGTTVTVSS VL: DIQMTQSPSSVSASVGDRVTITCSASQGISGDLNWYQQKPGKAPKLLIYHTSSLHSGVPSRFSGSGSGTDFTLTISSLQPEDFATYYCQYYSKDLLTFGGGTKLEIKR |
| 3.88 | 46000 | 54.4 | 0.00321 | 58900 | 14.3 | 0.00136 | 95700 | – | – | – | – | – | – | – | – | – | – | – | – | z7-XVT458 (antibody, human IgG1, kappa, V domains shown, hIgG1; numbering as for z1; also called GH + V067A + T071V + T073K) VH: QVQLVQSGAEVKKPGASVKVSCKASGYTFTNFYIHWVRQAPGQGLEWMGSIYPNYGDTAYNQKFKDRATMTVDKSTSTAYMELRSLRSDDTAVYYCARGYSYAMDYWGQGTTVTVSS VL: DIQMTQSPSSVSASVGDRVTITCSASQGISGDLNWYQQKPGKAPKLLIYHTSSLHSGVPSRFSGSGSGTDFTLTISSLQPEDFATYYCQYYSKDLLTFGGGTKLEIKR |
| 5.85 | 45200 | 57.3 | 0.00359 | 62700 | 15.9 | 0.00146 | 92300 | – | – | – | – | – | – | – | – | – | – | – | – | z1-XVT458 (antibody, human IgG1, kappa, V domains shown, hIgG1; also called GH + V067A) VH: QVQLVQSGAEVKKPGASVKVSCKASGYTFTNFYIHWVRQAPGQGLEWMGSIYPNYGDTAYNQKFKDRATMTTDTSTSTAYMELRSLRSDDTAVYYCARGYSYAMDYWGQGTTVTVSS VL: DIQMTQSPSSVSASVGDRVTITCSASQGISGDLNWYQQKPGKAPKLLIYHTSSLHSGVPSRFSGSGSGTDFTLTISSLQPEDFATYYCQYYSKDLLTFGGGTKLEIKR |
| – | – | – | – | – | – | – | – | 104 | 0.00641 | 61500 | 8.7 | 0.000495 | 56900 | – | – | – | – | – | – | ZJN296-0 (antibody, human IgG1, V domains shown, human IgG1; also called humanized ZJN296-0; GH + GL) VH: QVQLVQSGAEVKKPGASVKVSCKASGYDFTSHWMHWVRQAPGQGLEWMGAIDPSDSYTNYNQKFKGRVTMTTDTSTSTAYMELRSLRSDDTAVYYCARSPFDYWGQGTTVTVSS VL: DIQMTQSPSSLSASVGDRVTITCKASQDVSTAVAWYQQKPGKAPKLLIYSASYRYTGVPSRFSGSGSGTDFTFTISSLQPEDIATYYCQQHYSFPFTFGQGTKLEIK |
| – | – | – | – | – | – | – | – | 107 | 0.00511 | 47600 | 6.57 | 0.000369 | 56100 | – | – | – | – | – | – | ZJN296-3 (antibody, V domains shown, human IgG1; also called GH + T073R, GL) VH: QVQLVQSGAEVKKPGASVKVSCKASGYDFTSHWMHWVRQAPGQGLEWMGAIDPSDSYTNYNQKFKGRVTMTTDRSTSTAYMELRSLRSDDTAVYYCARSPFDYWGQGTTVTVSS VL: DIQMTQSPSSLSASVGDRVTITCKASQDVSTAVAWYQQKPGKAPKLLIYSASYRYTGVPSRFSGSGSGTDFTFTISSLQPEDIATYYCQQHYSFPFTFGQGTKLEIK |
| – | – | – | – | – | – | – | – | 43.9 | 0.00279 | 63600 | 3.22 | 0.000201 | 62600 | – | – | – | – | – | – | ZJN296-6 (antibody, V domains shown, human IgG1; also called GH + T071V + T073R, GL) VH: QVQLVQSGAEVKKPGASVKVSCKASGYDFTSHWMHWVRQAPGQGLEWMGAIDPSDSYTNYNQKFKGRVTMTVDRSTSTAYMELRSLRSDDTAVYYCARSPFDYWGQGTTVTVSS VL: DIQMTQSPSSLSASVGDRVTITCKASQDVSTAVAWYQQKPGKAPKLLIYSASYRYTGVPSRFSGSGSGTDFTFTISSLQPEDIATYYCQQHYSFPFTFGQGTKLEIK |
| – | – | – | – | – | – | – | – | 72.7 | 0.00433 | 59600 | 5.72 | 0.000324 | 56500 | – | – | – | – | – | – | ZJN296-2 (antibody, V domains shown, human IgG1; also called GH + T071V, GL) VH: QVQLVQSGAEVKKPGASVKVSCKASGYDFTSHWMHWVRQAPGQGLEWMGAIDPSDSYTNYNQKFKGRVTMTVDTSTSTAYMELRSLRSDDTAVYYCARSPFDYWGQGTTVTVSS VL: DIQMTQSPSSLSASVGDRVTITCKASQDVSTAVAWYQQKPGKAPKLLIYSASYRYTGVPSRFSGSGSGTDFTFTISSLQPEDIATYYCQQHYSFPFTFGQGTKLEIK |
| – | – | – | – | – | – | – | – | – | – | – | – | – | – | 3 | 0.00016 | 52000 | 0.5 | 2.9e-05 | 57000 | 21A08Ap1 (antibody, V domains shown, IgG with lambda light chain; also called 21A08p1; 21A8Ap1) VH: EVQLLESGGGLVQPGGSLRLSCAASGFTFSINAMTWVRQAPGKGLEWVSTISGSGFSTYYADSLKGRFTISRDNSKNTLYLQMNSLRAEDTAVYYCAKEVYGDYWGQGTLVTVSS VL: RSVLTQPPSASGTPGQRVSISCSGASSNIGSQSVFWYQQLPGTAPKLLIYSNNQRPSGVPDRFSGSKSGTSASLAISGLRSEDEADYYCAAWDDSLSIWVFGGGTKLTVL |
| – | – | – | – | – | – | – | – | – | – | – | – | – | – | 4.67 | 0.00025 | 55000 | 0.58 | 3.5e-05 | 60000 | 21A08Ap3 (antibody, V domains shown, IgG) VH: EVQLLESGGGLVQPGGSLRLSCAASGFTFSINAMTWVRQAPGKGLEWVSTISGSGFSTYYADSLKGRFTISRDNSKNTLYLQMNSLRAEDTAVYYCAKEVYGDYWGQGTLVTVSS VL: not shown |
| – | – | – | – | – | – | – | – | – | – | – | – | – | – | 3.2 | 0.00019 | 59000 | 0.66 | 4.2e-05 | 64000 | 21A08Ap2 (antibody, V domains shown, IgG with lambda light chain) VH: EVQLLESGGGLVQPGGSLRLSCAASGFTFSINAMTWVRQAPGKGLEWVSTISGSGFSTYYADSLKGRFTISRDNSKNTLYLQMNSLRAEDTAVYYCAKEVYGDYWGQGTLVTVSS VL: RSVLTQPPSASGTPGQRVSISCSGASSNIGSSSVFWYQQLPGTAPKLLIYSNNQRPSGVPDRFSGSKSGTSASLAISGLRSEDEADYYCAAWDDSLSIWVFGGGTKLTVL |
